Biological target: T1, purified human properdin (human, UniProt P27918 28-469)
T1 construct: also called factor P
Test: ELISA, properdin coated, normalized 293T supernatants, anti-V5 detection

T1 sequence (P27918 28-469 limits assumed): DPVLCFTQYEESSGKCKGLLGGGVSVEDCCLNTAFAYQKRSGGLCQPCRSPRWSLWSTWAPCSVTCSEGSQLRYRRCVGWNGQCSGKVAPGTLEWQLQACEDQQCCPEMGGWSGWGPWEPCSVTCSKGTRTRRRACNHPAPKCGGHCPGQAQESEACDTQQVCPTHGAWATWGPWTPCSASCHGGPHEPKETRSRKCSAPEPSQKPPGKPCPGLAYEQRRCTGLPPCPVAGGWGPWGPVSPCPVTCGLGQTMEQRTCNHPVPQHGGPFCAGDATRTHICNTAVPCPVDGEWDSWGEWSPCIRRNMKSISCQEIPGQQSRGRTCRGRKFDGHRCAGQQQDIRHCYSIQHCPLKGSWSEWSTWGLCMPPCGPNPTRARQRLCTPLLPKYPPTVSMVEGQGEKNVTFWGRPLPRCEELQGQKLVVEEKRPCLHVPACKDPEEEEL

B1: recombinant Rhipicephalus appendiculatus histamine-binding protein 2 (RaHBP2) (other, UniProt O77421 20-190, looked up, not shown: small tags and cut ends)
chain: NQPDWADEAANGAHQDAWKSLKADVENVYYMVKATYKNDPVWGNDFTCVGVMANDVNEDEKSIQAEFLFMNNADTNMQFATEKVTAVKMYGYNRENAFRYETEDGQVFTDVIAYSDDNCDVIYVPGTDGNEEGYELWTTDYDNIPANCLNKFNEYAVGRETRDVFTSACLE
notes: Negative control, supernatant of transfected 293T cells
binding result: no binding

Reference: patent US20110008351A1 (UNIVERSITE LIBRE DE BRUXELLES, published 2011)
